Results: patent US20160348147A1, “SYSTEMS AND DEVICES FOR PROTEASE DETECTION BASED ON ENGINEERED POLYMERS AND BIOPOLYMERS AND METHODS OF USE” (DUKE UNIVERSITY, priority 2014, published 2016)

How the values were obtained:
[1] = biological target: T1, Human MMP-1 catalytic domain (Homo sapiens, UniProt P03956); assay: Time-dependent aggregation (OD350) of ELP-substrate fusion with MMP-1 in proteolysis buffer; format: biochemical; conditions: 50 nM MMP-1 inhibitor added prior to 50 ng/mL (2.5 nM) MMP-1; ELP-substrate fusion 100 μM, 40° C., protease buffer; even after 900 minutes
T1 construct: Human MMP-1 catalytic domain (recombinant, produced in E. coli, 19.9 kDa, >95% purity); purchased Enzo Life Sciences (Farmingdale, N.Y.); host or cells: E. coli
T1 sequence (P03956 100-269 limits assumed): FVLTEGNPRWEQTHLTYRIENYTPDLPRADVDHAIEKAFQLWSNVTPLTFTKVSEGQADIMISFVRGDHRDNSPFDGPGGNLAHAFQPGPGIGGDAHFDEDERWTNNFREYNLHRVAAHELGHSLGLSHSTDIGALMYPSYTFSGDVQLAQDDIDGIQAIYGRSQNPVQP

[2] = test system: endogenous MMP-1 in human serum; assay: Time-dependent aggregation (OD350) of ELP-substrate fusion in diluted human serum (40%); format: biochemical; conditions: diluted serum, without any added MMP-1, after 400 minutes, 37° C.
Description: We performed the proteolysis reactions either in 100% protease buffer or in a mixture of human serum and buffer (40% (v/v) serum, 50% (v/v) buffer, 10% (v/v) ELP-substrate solution in water). The proteolysis buffer (100 mM HEPES, CaCl2 20 mM, MgCl2 1.0 mM, ZnCl2 100 μM, NaCl 0.5 M for diluted serum and 0.1 M for buffer solutions) was made experimentally in our lab based on previously published assays (Patterson, J. & Hubbell, J. A. Biomaterials 2010, 31, 7836-7845; Turk, B. E. et al., Nature Biotechnology 2001, 19, 661-667; Lowe, S. B. et al., Acs Nano 2012, 6, 851-857). We investigated proteolysis in two ways. In the first approach, we incubated solutions of the ELP-substrate fusion with MMP-1 (100 ng/mL) for 12 h at 40° C. temperature and measured the optical density at 350 nm (OD350) before and after the incubation. In the second approach, we incubated the ELP-substrate fusion with varying concentrations of MMP-1 (0.02 ng/mL to 200 ng/mL) in buffer or in diluted human serum, at 40° C. or 37° C. respectively, a temperature that is above the CMT of the ELP, and monitored the changes OD350 as a function of time (kinetic study). For the kinetic studies, we added the enzyme to the solution after the optical density of the solution reached a steady-state value and repeated the experiments at least three times. […]

[3] = Thermal behavior by optical turbidimetry and dynamic light scattering; format: physicochemical; conditions: concentration of 100 μM
Description: We confirmed the purity and molecular weight of the purified peptides by electrophoresis (10-20% gradient […] SDS-PAGE, Thermo Scientific, CA) and by matrix-assisted laser desorption/ionization mass spectrometry. Mass spectrometry samples were prepared by mixing the enzymatic reaction product with sinapinic acid in 1:10 ratio. 1 μL of the sample/matrix mixture was then loaded on the grid and the measurements were performed on a Voyager-DE-Pro instrument (Applied Biosystems, Germany). To determine the concentration of the ELP-substrate fusion solutions we used a calculated extinction coefficient (Gill, S. C. & Vonhippel, P. H. Analytical Biochemistry 1989, 182, 319-326) or lyophilized the polypeptide solution. We studied the thermal behavior of the ELP-substrate fusion constructs in both proteolysis buffer (see below) and diluted human serum in the presence and absence of MMP-1 using optical turbidimetry on a temperature-programmed UV-vis spectrometer (Cary 300, Agilent Technologies). To characterize the size of the micelles and aggregates, we used single angle dynamic light scattering (DLS; DynaPro, Protein Solution).
FIG. 2 presents optical densities at 350 nm (OD350) and hydrodynamic diameters of ELP-substrate fusion as a function of temperature prior to, and after, enzymatic reaction. […] These changes are consistent with the self-assembly of ELP-substrate fusions (unimers) into micelles as the temperature is raised above the CMT (Ghoorchian, A. et al., The Journal of Physical Chemistry. B 2013, 117, 8865-8874). We note that there is a slight local maximum in both the optical density and hydrodynamic diameter at temperatures slightly above the CMT, which has been observed previously (Hassouneh, W., Duke University, PhD thesis, 2013); the origin of this small peak is, as yet, unclear.

active PSA = active PSA (Homo sapiens, UniProt P07288); assay: Optical density of PSA peptide before and after incubation with active PSA; format: biochemical; conditions: 100 μM, 20 ng/mL active PSA, protease buffer, 37° C., 2 hours
Description: We designed a number of genes and replaced the MMP-1 sensitive peptide described above with a PSA-sensitive peptide sequence. One such example is: M(GVGVP)60[…] (SEQ ID NO:6; referred to herein as PSA peptide). Optical density measurements of 100 μM solution of PSA peptide were obtained prior to and after incubation with 20 ng/mL active PSA in protease buffer at 37° C. for 2 hours.

MMP-1 = biological target: T2, MMP-1 (Homo sapiens, UniProt P03956); assay: Transition temperature of UCST biopolymer before and after incubation with MMP-1; format: biochemical; conditions: 25 μM, 25 ng/mL MMP-1, 37° C.
T2 sequence (P03956 100-469): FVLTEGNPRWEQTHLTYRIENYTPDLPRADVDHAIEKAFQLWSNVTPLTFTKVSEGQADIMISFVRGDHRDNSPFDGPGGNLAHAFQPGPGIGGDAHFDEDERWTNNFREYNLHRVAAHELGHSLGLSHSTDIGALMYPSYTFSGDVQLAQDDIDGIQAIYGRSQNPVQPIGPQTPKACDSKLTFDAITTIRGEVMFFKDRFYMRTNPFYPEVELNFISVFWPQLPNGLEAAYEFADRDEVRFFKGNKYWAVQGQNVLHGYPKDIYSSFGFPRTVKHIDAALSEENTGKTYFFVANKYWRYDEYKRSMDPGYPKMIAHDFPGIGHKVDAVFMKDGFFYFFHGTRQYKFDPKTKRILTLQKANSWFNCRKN
Text: To exemplify the use of UCST peptides, we changed our system by incorporating a number of UCST biopolymers with the MMP-1 substrate, for example: M(YPSDGRGQ)40YGDGQ VPMSMRGGDEGQQDDEEGY (SEQ ID NO:7; referred to herein as the A4 construct). Cleavage of the protease-sensitive peptide between S and M in this sequence at a constant temperature would increase the transition temperature, which can cause the solution to transition from clear to cloudy. The time that takes for the transition to happen depends on the enzyme concentration similar to in the manner in which the LCST, micellar-based assays described above function.
Accordingly, aggregation time can be used to estimate the enzyme concentration in an unknown solution.

Chain of active PSA (P07288 25-261): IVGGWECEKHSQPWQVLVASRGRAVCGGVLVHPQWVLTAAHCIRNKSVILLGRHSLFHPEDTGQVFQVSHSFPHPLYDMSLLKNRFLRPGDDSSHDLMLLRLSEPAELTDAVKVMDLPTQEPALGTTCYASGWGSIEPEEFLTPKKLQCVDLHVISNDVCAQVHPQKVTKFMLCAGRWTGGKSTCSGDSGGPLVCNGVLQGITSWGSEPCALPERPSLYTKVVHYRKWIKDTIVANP

COc1ccc(S(=O)(=O)N(CC(=O)NO)CC(C)C)cc1 [NNGH, N-isobutyl-N-(4-methoxyphenylsulfonyl)glycyl hydroxamic acid, reference compound]
change in optical density upon addition of the inhibitor [1]: no significant change in optical density
aggregation in diluted serum with added MMP-1 inhibitor [2]: no aggregation

(GVGVP)60 [reference compound]
soluble unimer-aggregate Tt [3]: ≈ 37 °C

M(GVGVP)60GDGQSSIYSQTEEQQDDEEG (MGVGVPGDGQSSIYSQTEEQQDDEEG) [PSA peptide]
optical density after incubation with active PSA (active PSA): increase in optical density of the solution above the transition temperature

M(YPSDGRGQ)40YGDGQ VPMSMRGGDEGQQDDEEGY (MYPSDGRGQYGDGQVPMSMRGGDEGQQDDEEGY) [A4 construct, MMP-sensitive-UCST biopolymer]
transition temperature prior to and after incubation with MMP-1 (MMP-1): change in transition temperature
